From patent US9993566B2, “SEZ6 modulators and methods of use” (AbbVie Stemcentrx LLC, priority 2013, dated 2018)

Columns and labels:
Format in all cases: binding
[1] = molecular target: T1, human recombinant SEZ6-His (Homo sapiens, UniProt Q53EL9); assay: Affinity by bio-layer interferometry (ForteBio RED) or surface plasmon resonance (Biacore 2000); settings: surface plasmon resonance
T1 construct: The cDNA fragment encoding the ECD of SEZ6 was amplified from the hSEZ6 cDNA clone; IgK signal peptide (N, cleaved yes); made in house; host or cells: HEK-293T and/or CHO-S
Procedure: Various methods were used to analyze the binding and immunochemical characteristics of selected SEZ6 modulators generated as set forth above. Specifically, a number of the antibody modulators were characterized as to affinity, binning, and cross reactivity with regard to human, cynomolgus, rat and mouse SEZ6 antigen along with SEZ6L and SEZ6L2 proteins by art-recognized methods including flow cytometry. Affinities and kinetic constants kon and koff of the selected modulators were measured using bio-layer interferometry analysis on a ForteBio RED (ForteBio, Inc.) or surface plasmon resonance using a Biacore 2000 each according to the manufacturer's instructions.
To verify the cross reactivity data above for rat SEZ6 and to determine the affinity and kinetic constants kon and koff of the selected effectors, either bio-layer interferometry analysis on a ForteBio RED (ForteBio, Inc.) or surface plasmon resonance on a Biacore 2000 (GE Healthcare) were conducted. Affinities were determined to both human recombinant SEZ6-His and rat recombinant SEZ6-His generated in Example 5.
Binding characteristics of the following humanized constructs from Example 8, hSC17.16, hSC17.17, hSC17.24, hSC17.28, hSC17.34 and hSC17.46, were analyzed in order to determine whether the CDR grafting process had appreciably altered their binding characteristics. The humanized constructs (CDR grafted) were compared with “traditional” chimeric antibodies comprising the murine parent (or donor) heavy and light chain variable domains and a human constant region substantially equivalent to that used in the humanized constructs. With these constructs surface plasmon resonance was conducted using a Biacore 2000 (GE Healthcare) to identify any subtle changes in rate constants brought about by the humanization process.

mouse SEZ6 = molecular target: T2, mouse SEZ6 (Mus musculus, UniProt Q7TSK2); assay: Flow cytometry cross reactivity, Neuro2a cells; settings: 5 μg/mL antibody
T2 construct: Neuro2a (ATCC Cat # CCL131), and RIN-m5F (ATCC cat # CRL-11605) cell lines which express mouse SEZ6 and rat SEZ6; host or cells: Neuro2a
T2 sequence (Q7TSK2 20-991): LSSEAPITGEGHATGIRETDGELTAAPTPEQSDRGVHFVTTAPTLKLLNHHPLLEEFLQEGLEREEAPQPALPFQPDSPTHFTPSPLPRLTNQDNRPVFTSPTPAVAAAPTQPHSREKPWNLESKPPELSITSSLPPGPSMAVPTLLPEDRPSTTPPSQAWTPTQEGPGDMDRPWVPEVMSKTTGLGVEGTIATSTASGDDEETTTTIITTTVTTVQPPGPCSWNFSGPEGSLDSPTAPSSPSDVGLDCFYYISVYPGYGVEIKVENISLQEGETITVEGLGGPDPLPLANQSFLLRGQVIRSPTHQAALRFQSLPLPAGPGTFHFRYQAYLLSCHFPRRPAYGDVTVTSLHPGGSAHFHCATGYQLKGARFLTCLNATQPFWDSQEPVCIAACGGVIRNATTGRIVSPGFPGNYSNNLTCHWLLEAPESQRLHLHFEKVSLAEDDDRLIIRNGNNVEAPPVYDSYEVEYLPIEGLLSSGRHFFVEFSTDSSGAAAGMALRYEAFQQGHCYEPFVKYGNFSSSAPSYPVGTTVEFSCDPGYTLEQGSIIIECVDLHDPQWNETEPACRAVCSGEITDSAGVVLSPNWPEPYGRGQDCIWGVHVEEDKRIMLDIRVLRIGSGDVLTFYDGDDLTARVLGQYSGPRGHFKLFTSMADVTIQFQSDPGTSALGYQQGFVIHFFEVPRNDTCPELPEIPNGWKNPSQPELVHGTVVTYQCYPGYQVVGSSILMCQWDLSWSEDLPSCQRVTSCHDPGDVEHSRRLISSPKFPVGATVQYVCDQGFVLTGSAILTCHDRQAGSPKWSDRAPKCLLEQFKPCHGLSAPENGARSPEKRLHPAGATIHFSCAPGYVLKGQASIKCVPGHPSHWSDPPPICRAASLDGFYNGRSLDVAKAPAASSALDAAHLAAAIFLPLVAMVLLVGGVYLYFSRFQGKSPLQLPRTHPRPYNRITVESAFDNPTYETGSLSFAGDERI
Procedure: (§1) In this regard flow cytometry was performed using a FACSCanto II as per the manufacturer's instructions in order to confirm that selected SC17 antibody modulators can immunospecifically associate with human SEZ6 and to determine whether the same modulators cross-react with cynomolgus, rat and/or murine SEZ6 in addition to SEZ6L and SEZ6L2. More particularly modulators were tested for cross reactivity to murine SEZ6 and rat SEZ6 by flow cytometry against Neuro2a (ATCC Cat # CCL131), and RIN-m5F (ATCC cat # CRL-11605) cell lines which express mouse SEZ6 and rat SEZ6, respectively. For examining cross reactivity to cynomolgus SEZ6, yeast displaying the extracellular domain of cynomolgus SEZ6 (Boder et al, 1997) were used for flow cytometry analysis.
(§2) Briefly 1×10^5 cells per well of Neuro2a, RIN-5mF, or yeast displaying cynomolgus SEZ6 cells were incubated for 30 minutes with 50 μL PBS (2% FCS) buffer with 5 μg/mL antibody. Cells were washed twice with the same buffer and then incubated with 50 μL per sample DyLight 649 labeled goat-anti-mouse IgG, Fc fragment specific secondary diluted 1:200 in PBS buffer. After incubating for 15 minutes cells were washed twice with the PBS buffer and re-suspended in the same with DAPI for flow cytometry analysis of Neuro2a and Rin-m5F or buffer without DAPI for flow cytometric analysis of yeast cells with cSEZ6.

rat SEZ6 = assay: Flow cytometry cross reactivity, RIN-m5F cells; settings: 5 μg/mL antibody
Chain of rat SEZ6 (as listed by the source): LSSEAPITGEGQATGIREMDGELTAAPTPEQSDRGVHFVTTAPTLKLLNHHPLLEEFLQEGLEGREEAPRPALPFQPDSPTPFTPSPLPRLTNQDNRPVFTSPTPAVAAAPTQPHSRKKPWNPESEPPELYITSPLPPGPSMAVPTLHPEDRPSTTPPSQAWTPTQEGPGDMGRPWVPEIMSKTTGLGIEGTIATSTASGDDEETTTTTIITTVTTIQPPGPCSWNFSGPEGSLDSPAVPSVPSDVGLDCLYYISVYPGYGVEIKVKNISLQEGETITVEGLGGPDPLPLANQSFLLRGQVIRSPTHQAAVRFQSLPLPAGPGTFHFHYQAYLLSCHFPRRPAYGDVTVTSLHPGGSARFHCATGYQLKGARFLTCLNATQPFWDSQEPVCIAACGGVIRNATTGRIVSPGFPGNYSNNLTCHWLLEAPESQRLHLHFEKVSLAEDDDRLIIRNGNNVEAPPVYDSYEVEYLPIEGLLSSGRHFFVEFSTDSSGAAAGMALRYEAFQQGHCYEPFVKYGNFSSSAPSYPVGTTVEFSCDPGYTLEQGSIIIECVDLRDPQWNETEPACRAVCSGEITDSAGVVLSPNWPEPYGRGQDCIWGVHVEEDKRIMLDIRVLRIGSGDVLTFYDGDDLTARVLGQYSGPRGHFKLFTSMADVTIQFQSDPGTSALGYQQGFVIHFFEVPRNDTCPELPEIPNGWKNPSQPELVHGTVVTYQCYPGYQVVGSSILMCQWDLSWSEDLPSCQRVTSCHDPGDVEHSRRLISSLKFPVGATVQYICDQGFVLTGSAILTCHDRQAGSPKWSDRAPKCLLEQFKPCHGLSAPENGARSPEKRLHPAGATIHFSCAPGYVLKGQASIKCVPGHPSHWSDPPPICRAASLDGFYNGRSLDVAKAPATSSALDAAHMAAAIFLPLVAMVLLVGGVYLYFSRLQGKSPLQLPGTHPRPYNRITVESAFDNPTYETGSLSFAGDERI
Procedure: as §1, §2

cynomolgus SEZ6 = assay: Flow cytometry cross reactivity, yeast displaying extracellular domain of cynomolgus SEZ6; settings: 5 μg/mL antibody
Procedure: as §1, §2

SEZ6 ECD = molecular target: T3, SEZ6 ECD (Homo sapiens, UniProt Q53EL9); assay: Fine epitope mapping (phage display peptide library or yeast-displayed SEZ6 ECD mutants); settings: epitope conformational (discontinuous) or linear
T3 construct: SEZ6 extracellular domain (amino acids 1-904); expressed in transfected cells; host or cells: yeast (surface display, Cochran et al. protocol)
Procedure: Epitopes were classified either as conformational (i.e. discontinuous) or linear. Yeast displaying the SEZ6 ECD construct was heat treated for 30 minutes at 80° C. in order to denature the antigen, washed twice in ice-cold PBSA and then subjected to the same staining protocol and flow cytometry analysis as described above. Antibodies that bound to both the denatured and native yeast were classified as binding to a linear epitope, whereas antibodies that bound native yeast but not denatured yeast were classified as conformationally specific.
Fine epitope mapping was further performed on selected antibodies to determine the specific amino acids to which they bound. Antibodies that bound to a linear epitope were mapped using the Ph.D.-12 phage display peptide library kit (New England Biolabs E8110S). The antibody selected for epitope mapping was coated onto a Nunc MaxiSorp tube (Nunc) at 50 μg/mL in 3 mL 0.1 M sodium bicarbonate solution, pH 8 and incubated overnight. The tube was blocked with 3% BSA solution in bicarbonate solution. Then, 10^11 input phage in PBS+0.1% Tween-20 was allowed to bind, followed by ten consecutive washes with 0.1% Tween-20 to wash away non-binding phage. Remaining phage were eluted with 1 mL 0.2 M glycine for 10 minutes at room temperature with gentle agitation, followed by neutralization with 150 μL 1 M Tris-HCl pH 9. Eluted phage were amplified and panned again with 10^11 input phage, using 0.5% Tween-20 during the wash steps to increase selection stringency. DNA from 24 plaques of the eluted phage from the second round was isolated using the Qiaprep M13 Spin kit (Qiagen) and sequenced. Binding of clonal phage was confirmed using an ELISA assay, where the mapped antibody or a control antibody was coated onto an ELISA plate, blocked, and exposed to each clone phage. Phage binding was detected using horseradish peroxidase conjugated anti-M13 antibody (GE Healthcare), and the 1-Step Turbo TMB ELISA solution (Pierce). Phage peptide sequences from specifically binding phage were aligned using Vector NTI (Life Technologies) against the antigen ECD peptide sequence to determine the epitope of binding.
Selected antibodies that bound to a discontinuous epitope were mapped using the technique described by Chao et al. (2007). Libraries of SEZ6 ECD mutants were generated with error prone PCR using nucleotide analogues 8-oxo-2′deoxyguanosine-5′-triphosphate and 2′-deoxy-p-nucleoside-5′triphosphate (both from TriLink Bio) for a target mutagenesis rate of one amino acid mutation per clone. These were transformed into a yeast display format. Using the technique described above for domain-level mapping, the library was stained for c-myc and antibody binding at 50 nM. […] These clones were re-grown, and subjected to another round of FACS sorting for loss of binding to the target antibody. Using the Zymoprep Yeast Plasmid Miniprep kit (Zymo Research), individual ECD clones were isolated and sequenced. Where necessary, mutations were reformatted as single-mutant ECD clones using the Quikchange site directed mutagenesis kit (Agilent).
Individual ECD clones were next screened to determine whether loss of binding was due to a mutation in the epitope, or a mutation that caused misfolding. Mutations that involved cysteine, proline, and stop codons were automatically discarded due to the high likelihood of a misfolding mutation. Remaining ECD clones were then screened for binding to a non-competing, conformationally specific antibody. ECD clones that lost binding to non-competing, conformationally specific antibodies were concluded to contain misfolding mutations, whereas ECD clones that retained equivalent binding as wild type SEZ6 ECD were concluded to be properly folded. Mutations in the ECD clones in the latter group were concluded to be in the epitope. […]

Molecule | binding affinity compared with corresponding murine or chimeric antibody [1] | also measured
hSC17.16: humanized (CDR grafted) anti-SEZ6 antibody derived from SC17.16 (antibody, V domains shown, Humanized hSC17.16 VH; Humanized hSC17.16 VL) VH: QVQLVQSGAEVKKPGASVKVSCKASGYTFTDYNMYWVRQAPGQGLEWMGEINPNNGGTAYNQKFRGKVTMTRDTSISTAYMELSRLRSDDTAVYYCARYDKGFDYWGQGTTVTVSS VL: DIQMTQSPSSLSASVGDRVTITCRASANINSNLVWYQQKPGKAPKLLIYAATNLADGVPSRFSGSGSGTDFTLTISSLQPEDFATYYCQHFWGTPRTFGGGTKLEIK | equivalent or better than the corresponding murine antibodies | –
hSC17.46: humanized (CDR grafted) anti-SEZ6 antibody derived from SC17.46 (antibody, V domains shown, Humanized hSC17.46 VH; Humanized hSC17.46 VL) VH: QVQLVQSGAEVKKPGASVKVSCKASGYTFTSYWINWVRQAPGQGLEWIGNIFPDTTTTNYNEKFKGRVTLTRDTSISTAYMELSRLRSDDTAVYYCAREYYDGTYDAMDYWGQGTLVTVSS VL: AIQMTQSPSSLSASVGDRVTITCKASQSVNNDVAWYQQKPGKAPKLLIYYASNRYTGVPSRFSGSGSGTDFTLTISSLQPEDFATYFCQQDYSSPRTFGQGTKLEIK | equivalent or better than the corresponding murine antibodies | –
hSC17.28: humanized (CDR grafted) anti-SEZ6 antibody derived from SC17.28 (antibody, V domains shown, Humanized hSC17.28 VH; Humanized hSC17.28 VL) VH: QVQLVQSGAEVKKPGASVKVSCKASGYTFTRSYIHWVRQAPGQGLEWMGYISSGSGGTTYNQKFKGRVTSTRDTSISTAYMELSRLRSDDTAVYYCARGGVRYFDVWGQGTTVTVSS VL: EIVLTQSPDFQSVTPKEKVTITCRASQSIGTSIHWYQQKPDQSPKLLIKYASESISGVPSRFSGSGSGTDFTLTINSLEAEDAATYYCQQSNSWPLTFGQGTKLEIK | equivalent or better than the corresponding murine antibodies | –
SC17.42: murine anti-SEZ6 antibody (antibody, V domains shown, Murine SC17.42 VH; Murine SC17.42 VL, murine anti-SEZ6 antibody) VH: DVKLVESGGGLVRPGGSLKLSCAASGFTFSRYTMSWVRQTPEKRLEWAATINSGGSNTYYPDSVKGRFTISRDNAKNTLFLQMSSLKSEDTAMYYCTNGNHWGQGTTLTVSS VL: ENVLTQSPAIMSASPGEKVTMTCSASSSVNYMYWYQQKSSTSPKLWIYDTSKLTSGVPGRFSGSGSGNSYSLTISNMEAEDVATYYCFQGSGYPLTFGSGTKLEIK | – | cross reactivity to murine SEZ6 (mouse SEZ6): cross reactive; cross reactivity to rat SEZ6 (rat SEZ6): cross reactive
hSC17.17: humanized (CDR grafted) anti-SEZ6 antibody derived from SC17.17 (antibody, V domains shown, Humanized hSC17.17 VH; Humanized hSC17.17 VL) VH: QVQLVQSGAEVKKPGASVKVSCKASGYTFTDYNMHWVRQAPGQGLEWMGEINPNIGGTGYNQKFKGRVTMTRDTSISTAYMELSRLRSDDTAVYYCARTYSYYSYEFAYWGQGTLVTVSS VL: EIVLTQSPATLSLSPGERATLSCSASSSVSYMHWYQQKPGQAPRLLIYDTSKLPSGIPARFSGSGSGTDFTLTISSLEPEDFAVYYCQQWSSTPPTFGQGTKLEIK | equivalent or better than the corresponding murine antibodies | –
SC17.24: murine anti-SEZ6 antibody; duplicate sequence of SC17.2 (antibody, V domains shown, Murine SC17.2 VH; Murine SC17.2 VL) VH: QVQLQQSDAELVKPGASVKISCKVSGYTFTDHTIHWMKQRPEQGLEWIGYIYPRDGSTKYNEEFKGKATLTADKSSSTAYMQLNSLTSEDSAVYFCARSYSNYFDYWGQGTTLTVSS VL: DIVMSQSPSSLAVSVGEKVTMSCKSSQSLLYSSNQKSYLAWYQQKPGQSPKLLIYWASTRESGVPDRFTGSGSGTDFTLTISSVQAEDLAVYYCKQSYNLRTFGGGTKLEIK | – | cross reactivity to murine SEZ6 (mouse SEZ6): cross reactive; cross reactivity to cynomolgus SEZ6 (cynomolgus SEZ6): cross reactive; Discontinuous (SEZ6 ECD): No
hSC17.34: humanized (CDR grafted) anti-SEZ6 antibody derived from SC17.34 (antibody, V domains shown, Humanized hSC17.34 VL) VH: QVQLVQSGAEVKKPGASVKVSCKASGYTFTDYNMDWVRQAPGQRLEWIGYIYPDNGGAGYNQKFKGRVTITVDTSASTAYMELSSLRSEDTAVYYCSRSITTAWFAYWGQGTLVTVSS VL: DIQMTQSPSSLSASVGDRVTITCKASQDINSYLSWFQQKPGKAPKSLIYRANRLVDGVPSRFSGSGSGTDYTLTISSLQPEDFATYYCLQYDEFPPTFGQGTKLEIK | equivalent or better than the corresponding murine antibodies | –
